Source: the Human Domainome abundance scans (Beltran et al. 2025)
± gives the uncertainty stated by the source.

B1: Mineralocorticoid receptor, residues 600 to 675; numbered along this chain, P08235 (parent)
chain: SKICLVCGDEASGCHYGVVTCGSCKVFFKRAVEGQHNYLCAGRNDCIIDKIRRKNCPACRLQKCLQAGMNLGARKS

Variants of: B1
Test: abundance fitness (aPCA) (normalised: wild type 0, dead -1); higher = more abundant; growth selection in yeast, the domain comes from the species named
Settings: Homo sapiens

Abundance fitness of substitutions, site by site:
F27: D -0.676 ± 0.19 | E -0.961 ± 0.15 | G -0.827 ± 0.097 | H -0.427 ± 0.2 | I -0.608 ± 0.19 | K -0.924 ± 0.18 | L -0.65 ± 0.078 | M -0.861 ± 0.19 | P -0.761 ± 0.14 | Q -0.847 ± 0.16 | R -1.15 ± 0.17 | T -0.638 ± 0.11 | V -0.591 ± 0.082 | W -0.223 ± 0.055 | Y -0.33 ± 0.093
F28: A -0.263 ± 0.048 | C -0.364 ± 0.21 | D -0.782 ± 0.33 | E -0.749 ± 0.13 | G -0.647 ± 0.073 | H -0.445 ± 0.33 | K -0.856 ± 0.24 | M -0.101 ± 0.077 | N -0.647 ± 0.37 | P -1.21 ± 0.49 | Q -0.582 ± 0.14 | R -0.898 ± 0.1 | S -0.361 ± 0.077 | V -0.322 ± 0.048 | W 0.037 ± 0.055 | Y -0.095 ± 0.18
K29: A 0.016 ± 0.056 | C -0.142 ± 0.11 | D 0.007 ± 0.15 | E -0.105 ± 0.065 | F -0.167 ± 0.11 | G -0.048 ± 0.044 | H -0.002 ± 0.11 | L -0.072 ± 0.047 | M -0.04 ± 0.056 | N -0.109 ± 0.092 | P -0.076 ± 0.074 | Q -0.003 ± 0.095 | R -0.021 ± 0.046 | S -0.04 ± 0.057 | T -0.012 ± 0.057 | V -0.095 ± 0.055 | W -0.085 ± 0.066
R30: H 0.043 ± 0.21 | P 0.293 ± 0.45 | W -0.29 ± 0.5 | Y -0.121 ± 0.32
A31: E -0.022 ± 0.23 | F -0.104 ± 0.22 | G 0.001 ± 0.16 | H -0.616 ± 0.35 | L -0.553 ± 0.38 | M 0.474 ± 0.49 | S -0.022 ± 0.38 | V 0.194 ± 0.31
V32: A 0.023 ± 0.1 | D -0.035 ± 0.2 | E -0.004 ± 0.22 | F -0.013 ± 0.077 | G -0.228 ± 0.19 | H -0.158 ± 0.14 | I 0.019 ± 0.1 | K -0.004 ± 0.18 | M 0.114 ± 0.15 | N -0.08 ± 0.13 | P -0.682 ± 0.25 | Q -0.017 ± 0.12 | R -0.095 ± 0.082 | W -0.24 ± 0.14 | Y -0.1 ± 0.1
E33: A -0.28 ± 0.05 | C -0.107 ± 0.055 | D -0.043 ± 0.052 | F -0.137 ± 0.057 | G 0.062 ± 0.044 | H -0.077 ± 0.051 | I -0.124 ± 0.047 | K 0.044 ± 0.086 | L -0.109 ± 0.041 | M -0.049 ± 0.076 | N -0.089 ± 0.057 | P -0.128 ± 0.048 | Q -0.039 ± 0.068 | S 0.008 ± 0.041 | T -0.051 ± 0.045 | V -0.01 ± 0.04 | W -0.099 ± 0.08 | Y -0.088 ± 0.061
G34: A -0.099 ± 0.06 | C -0.151 ± 0.099 | E -0.013 ± 0.089 | F 0.071 ± 0.085 | H -0.078 ± 0.069 | I -0.103 ± 0.087 | K -0.104 ± 0.073 | L -0.131 ± 0.06 | M -0.098 ± 0.092 | N 0.042 ± 0.08 | Q -0.043 ± 0.099 | R 0.032 ± 0.054 | S -0.074 ± 0.048 | T -0.064 ± 0.056 | V -0.102 ± 0.049 | W -0.165 ± 0.092
Q35: A -0.058 ± 0.044 | C -0.073 ± 0.05 | D 0.056 ± 0.057 | E 0.069 ± 0.058 | F -0.129 ± 0.055 | G -0.023 ± 0.042 | H -0.022 ± 0.051 | I -0.015 ± 0.056 | K 0.011 ± 0.06 | L -0.094 ± 0.038 | M -0.121 ± 0.056 | N -0.058 ± 0.049 | P -0.013 ± 0.047 | R -0.002 ± 0.038 | S -0.028 ± 0.038 | T -0.077 ± 0.043 | V -0.079 ± 0.035 | W -0.205 ± 0.057 | Y -0.112 ± 0.056
H36: A 0.025 ± 0.03 | C -0.042 ± 0.042 | D 0.005 ± 0.041 | E -0.004 ± 0.038 | F -0.023 ± 0.045 | G -0.012 ± 0.027 | I -0.022 ± 0.043 | K -0.138 ± 0.054 | L -0.087 ± 0.028 | M -0.046 ± 0.039 | N 0.001 ± 0.042 | P -0.021 ± 0.036 | Q -0.004 ± 0.042 | S 0.01 ± 0.03 | T -0.022 ± 0.037 | W -0.157 ± 0.039 | Y -0.043 ± 0.039
N37: A -0.027 ± 0.034 | C -0.036 ± 0.049 | D -0.02 ± 0.047 | E 0.068 ± 0.042 | F -0.264 ± 0.075 | G -0.061 ± 0.03 | H -0.051 ± 0.051 | I -0.058 ± 0.058 | K 0.031 ± 0.051 | M -0.076 ± 0.059 | P -0.083 ± 0.041 | Q -0.017 ± 0.046 | R 0.01 ± 0.03 | S -0.043 ± 0.033 | T -0.029 ± 0.04 | V 0.026 ± 0.036 | W -0.23 ± 0.047 | Y -0.085 ± 0.048
Y38: A -0.027 ± 0.042 | C -0.153 ± 0.057 | D -0.041 ± 0.05 | F -0.027 ± 0.049 | G -0.164 ± 0.064 | H -0.059 ± 0.048 | I -0.069 ± 0.046 | K -0.026 ± 0.067 | L -0.054 ± 0.039 | M -0.117 ± 0.1 | N -0.098 ± 0.039 | P -0.038 ± 0.043 | Q -0.118 ± 0.077 | R -0.088 ± 0.05 | S -0.049 ± 0.036 | T -0.051 ± 0.04 | V 0.012 ± 0.046 | W -0.047 ± 0.084
L39: A -0.093 ± 0.039 | C 0.027 ± 0.049 | D 0.048 ± 0.065 | E -0.047 ± 0.057 | F -0.027 ± 0.044 | G -0.045 ± 0.038 | I -0.043 ± 0.047 | K -0.009 ± 0.053 | M 0.016 ± 0.054 | P -0.07 ± 0.057 | Q -0.001 ± 0.058 | R -0.019 ± 0.036 | S -0.05 ± 0.041 | T -0.077 ± 0.044 | V -0.007 ± 0.035 | Y -0.054 ± 0.043
C40: A -0.816 ± 0.11 | D -0.819 ± 0.15 | E -0.646 ± 0.15 | F -1.13 ± 0.28 | G -0.986 ± 0.16 | H -0.341 ± 0.11 | I -0.759 ± 0.14 | K -0.73 ± 0.16 | L -0.847 ± 0.13 | N -0.477 ± 0.13 | R -1 ± 0.15 | S -1.05 ± 0.14 | T -0.68 ± 0.22 | V -1.23 ± 0.22 | W -0.697 ± 0.12 | Y -0.737 ± 0.1
A41: C -0.017 ± 0.06 | D 0.036 ± 0.051 | E 0.129 ± 0.081 | F -0.277 ± 0.07 | G 0.028 ± 0.04 | H -0.033 ± 0.045 | K -0.149 ± 0.077 | L -0.103 ± 0.041 | M 0.052 ± 0.056 | N -0.079 ± 0.052 | P -0.116 ± 0.048 | Q -0.074 ± 0.069 | R -0.021 ± 0.044 | S -0.077 ± 0.041 | T -0.048 ± 0.045 | V -0.053 ± 0.043 | W -0.127 ± 0.075 | Y 0.001 ± 0.06
G42: A 0.005 ± 0.043 | C -0.088 ± 0.046 | D 0.051 ± 0.057 | F -0.044 ± 0.045 | I -0.033 ± 0.044 | L -0.009 ± 0.043 | M 0.045 ± 0.1 | N -0.025 ± 0.046 | P -0.621 ± 0.083 | Q 0.032 ± 0.091 | R -0.062 ± 0.045 | S 0.023 ± 0.037 | T -0.099 ± 0.05 | V 0.005 ± 0.041 | W -0.126 ± 0.077 | Y -0.051 ± 0.045
R43: D -0.024 ± 0.043 | E 0.005 ± 0.042 | F -0.045 ± 0.035 | G -0.006 ± 0.028 | H -0.029 ± 0.04 | I -0.025 ± 0.034 | K 0.029 ± 0.049 | L -0.055 ± 0.029 | M 0.008 ± 0.048 | N -0.015 ± 0.036 | P -0.138 ± 0.038 | Q -0.067 ± 0.043 | S -0.001 ± 0.027 | T -0.001 ± 0.032 | V -0.038 ± 0.03 | W -0.067 ± 0.04
N44: A -0.016 ± 0.041 | D 0.071 ± 0.062 | E -0.042 ± 0.052 | F -0.075 ± 0.067 | G -0.004 ± 0.036 | H -0.045 ± 0.08 | I -0.342 ± 0.099 | K 0.016 ± 0.049 | L -0.16 ± 0.038 | M -0.081 ± 0.049 | P -0.391 ± 0.055 | Q -0.038 ± 0.049 | S -0.02 ± 0.043 | T -0.054 ± 0.052 | V -0.246 ± 0.042 | W -0.089 ± 0.041 | Y -0.049 ± 0.088
D45: A -0.067 ± 0.033 | E 0.015 ± 0.042 | F -0.163 ± 0.046 | G -0.079 ± 0.032 | I -0.1 ± 0.041 | K -0.072 ± 0.047 | L -0.094 ± 0.034 | M -0.057 ± 0.054 | N -0.045 ± 0.04 | P -0.149 ± 0.046 | Q 0.016 ± 0.053 | R -0.024 ± 0.035 | S -0.092 ± 0.037 | T -0.104 ± 0.038 | V -0.074 ± 0.031 | W -0.249 ± 0.054 | Y -0.159 ± 0.044
C46: A -0.744 ± 0.12 | D -0.785 ± 0.23 | E -0.852 ± 0.34 | F -0.653 ± 0.065 | G -0.636 ± 0.11 | H -0.011 ± 0.044 | I -0.827 ± 0.11 | K -0.839 ± 0.17 | L -0.819 ± 0.094 | M -0.81 ± 0.3 | N -0.921 ± 0.15 | P -0.856 ± 0.13 | Q -0.966 ± 0.2 | R -0.821 ± 0.088 | S -0.946 ± 0.097 | V -0.813 ± 0.15 | W -0.856 ± 0.15
I47: A -0.035 ± 0.055 | C 0.049 ± 0.057 | D -0.065 ± 0.057 | E -0.023 ± 0.14 | F -0.01 ± 0.047 | G -0.096 ± 0.067 | H -0.018 ± 0.043 | K 0.018 ± 0.11 | L 0.022 ± 0.044 | M -0.079 ± 0.09 | P 0.013 ± 0.058 | Q -0.024 ± 0.072 | R 0.03 ± 0.049 | S 0 ± 0.038 | T 0.027 ± 0.049 | V -0.019 ± 0.058 | W -0.193 ± 0.1 | Y -0.128 ± 0.05
I48: A -0.074 ± 0.037 | C -0.226 ± 0.052
